Drawing on publication PMC2937177, this text covers stoichiometry N for 1 molecule.

For this assay, the target named is T1, KcsA (S. lividans), P0A334.
T1 chain: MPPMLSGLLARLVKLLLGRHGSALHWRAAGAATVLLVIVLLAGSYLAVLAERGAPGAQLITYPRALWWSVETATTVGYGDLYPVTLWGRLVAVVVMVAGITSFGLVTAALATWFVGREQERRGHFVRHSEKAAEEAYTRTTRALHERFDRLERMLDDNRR
In words: SDS-PAGE. Conditions: remark: other sources report otherwise.

Broadly, the stoichiometry N is the number of molecules, sites or subunits per partner or assembly.

B1: KcsA, P0A334 1-160 (natural protein)
chain: T1 chain
B1 yielded a stoichiometry N of 4.
